We go through 4 substances from patent US20200231681A1.

In test [1] the target is EGFR on HCC827 cells (EGFR E746-A750 deletion mutation) (human) (UniProt P00533). Description: cell-based or functional assay.
Test [2] concerns the target c-Met receptor on human tumor cells (MKN45, NCI-H820, HCC827) (human) (UniProt P08581). Description: cell-based or functional assay.
Test [3] addresses cynomolgus monkey EGFR ECD (SiNo. Biological, 90285-008B) (cynomolgus monkey). Description: SPR (BIAcore), antibody captured by anti-human IgG Fc, antigen as analyte, 1:1 Langmuir.
Test [4] has as its target c-Met receptor on human tumor cells (MKN45, NCI-H820, HCC827) (human) (UniProt P08581). Description: flow cytometry on MKN45 cells, 100 nM control antibody, anti-human kappa LC-FITC (column of hu8C4). In general terms: Flow cytometry measures light scatter and fluorescence of single cells or particles in a stream.
The target is the same in test [5]. As to the kind of experiment: flow cytometry on MKN45 cells, 100 nM control antibody, anti-human kappa LC-FITC (column of OA-5D5).

Chain of c-Met receptor on human tumor cells (MKN45, NCI-H820, HCC827) (human) (P08581 25-1390): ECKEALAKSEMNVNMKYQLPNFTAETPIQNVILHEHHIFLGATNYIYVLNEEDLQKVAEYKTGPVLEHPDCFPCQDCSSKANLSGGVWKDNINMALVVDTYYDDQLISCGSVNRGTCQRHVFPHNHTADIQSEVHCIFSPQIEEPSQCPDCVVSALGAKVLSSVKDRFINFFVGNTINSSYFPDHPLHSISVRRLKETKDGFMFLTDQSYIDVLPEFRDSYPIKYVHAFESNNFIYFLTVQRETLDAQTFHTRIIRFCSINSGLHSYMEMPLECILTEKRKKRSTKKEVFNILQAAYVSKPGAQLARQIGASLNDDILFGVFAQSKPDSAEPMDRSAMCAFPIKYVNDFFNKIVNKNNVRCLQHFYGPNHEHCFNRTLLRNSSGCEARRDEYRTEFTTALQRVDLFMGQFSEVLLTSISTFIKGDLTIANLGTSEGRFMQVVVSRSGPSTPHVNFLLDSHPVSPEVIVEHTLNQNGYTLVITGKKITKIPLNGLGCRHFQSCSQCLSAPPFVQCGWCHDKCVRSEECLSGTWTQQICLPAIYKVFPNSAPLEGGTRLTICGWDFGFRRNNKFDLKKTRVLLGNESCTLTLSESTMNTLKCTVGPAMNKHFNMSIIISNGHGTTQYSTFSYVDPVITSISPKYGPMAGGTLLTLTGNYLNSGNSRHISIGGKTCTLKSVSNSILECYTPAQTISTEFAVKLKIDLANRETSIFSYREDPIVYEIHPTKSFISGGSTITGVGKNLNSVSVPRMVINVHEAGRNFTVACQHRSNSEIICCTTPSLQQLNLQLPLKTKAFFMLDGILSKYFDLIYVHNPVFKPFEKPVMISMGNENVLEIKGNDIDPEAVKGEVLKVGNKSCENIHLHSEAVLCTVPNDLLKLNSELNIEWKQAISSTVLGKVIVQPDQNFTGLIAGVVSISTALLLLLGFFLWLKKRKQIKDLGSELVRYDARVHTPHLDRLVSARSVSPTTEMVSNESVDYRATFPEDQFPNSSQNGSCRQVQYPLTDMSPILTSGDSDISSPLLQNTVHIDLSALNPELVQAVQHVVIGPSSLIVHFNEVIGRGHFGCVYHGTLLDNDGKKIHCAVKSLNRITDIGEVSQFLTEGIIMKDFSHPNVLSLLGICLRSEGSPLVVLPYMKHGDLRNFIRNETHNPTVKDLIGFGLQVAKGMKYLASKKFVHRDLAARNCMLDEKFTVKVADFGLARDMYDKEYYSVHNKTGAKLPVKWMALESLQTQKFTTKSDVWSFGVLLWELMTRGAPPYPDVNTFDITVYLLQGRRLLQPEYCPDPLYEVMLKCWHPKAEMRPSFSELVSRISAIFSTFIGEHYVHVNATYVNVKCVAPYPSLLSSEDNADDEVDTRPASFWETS

In test [1], “C-EM1 (EM1-MAb, Janssen; control c-Met/EGFR bispecific antibody)” displayed an EGFR on the surface of HCC827 cells after 18 h with 100 nM antibody, Means (geo MFI); human IgG control 11494 of 11500 geo MFI. Also, in test [2], the c-Met on the surface of HCC827 cells after 18 h with 100 nM antibody, Means (geo MFI); human IgG control 5653 was found to be 3660 geo MFI and the decrease of c-Met on the surface of HCC827 cells stood at 40%.
Consider “C-LA480 (LA480, Lilly; control c-Met antibody)”, for which, in test [2], the c-Met on the surface of HCC827 cells after 18 h with 100 nM antibody, Means (geo MFI); human IgG control 5653 is 3270 geo MFI and the decrease of c-Met on the surface of HCC827 cells is 40%.
Substance Vectibix (antibody) displayed a dissociation constant (Kd) in test [3] of 0.209 nM.
Turning to human IgG antibody (negative control), the FITC MFI [IgG control] (FITC geo-mean (MFI)) in test [4] and in test [5] was 127 each time.

The Kd is the constant that tells how readily two partners part at equilibrium.
